One may read the stoichiometry N as the number of molecules, sites or subunits per partner or assembly.

We go through one protein from publication PMC12732928, “The Study of Ice-Binding Protein Oligomeric Complexes” (International Journal of Molecular Sciences, 2025).

Where “and” joins values, the source holds several entries; their conditions need not be identical. Identical values can stand only once.

Series [1] deals with the molecule itself. The series can be described thus: MALDI-TOF mass spectrometry; samples obtained after freezing; otherwise as the other MALDI spectra; high-order forms of low intensity.
Series [2] concerns the molecule itself. Nature of the series: MALDI-TOF mass spectrometry; protein at 0.4 mM desalted on a C4 ZipTip, alpha-CHCA matrix, positive linear mode, 8-190 kDa.

B1: ice-binding protein P80961 from longhorn sculpin (Myoxocephalus octodecemspinosus) (natural protein)
chain: MKFSLVATIVLLALAQGSFAQGAADLESLGQYFEEMKTKLIQDMTEIIRSQDLANQAQAFVEDKKTQLQPLVAQIQEQMKTVATNVEEQIRPLTANVQAHLQPQIDNFQKQMEAIIKKLTDQTMAIEN
B1: the “stoichiometry N” value was 5 and 6 and 7 in series [1]; 2 and 3 and 4 in series [2].
